{
  "source": "patent US20090023646A1",
  "about": "“GHRH analogues” (Centre Hospitalier de L'Universite de Montreal (CHUM), priority 2002, published 2009)",
  "key": {"[1]": {"biological_target": "T1, human GHRH receptor (human, UniProt Q02643 23-423)", "T1 construct": "whole, on cells; Assayed in BHK cell membrane preparations (25 ug protein per tube), not on intact cells; also called hGHRH-R; hGHRH receptor", "T1 sequence (looked up)": "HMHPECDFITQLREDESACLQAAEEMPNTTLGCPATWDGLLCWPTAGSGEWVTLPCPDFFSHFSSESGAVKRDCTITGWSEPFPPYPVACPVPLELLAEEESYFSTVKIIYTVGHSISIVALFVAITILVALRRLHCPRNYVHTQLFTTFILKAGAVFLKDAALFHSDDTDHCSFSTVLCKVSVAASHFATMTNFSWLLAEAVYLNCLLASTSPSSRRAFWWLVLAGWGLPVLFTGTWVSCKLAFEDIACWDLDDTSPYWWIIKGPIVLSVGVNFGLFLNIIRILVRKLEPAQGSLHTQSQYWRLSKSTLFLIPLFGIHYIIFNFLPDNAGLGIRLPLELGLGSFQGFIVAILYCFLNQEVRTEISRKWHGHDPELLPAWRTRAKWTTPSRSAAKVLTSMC", "assay": "competition with [125I-Tyr10]hGHRH(1-44)NH2, BHK cell membrane preparations expressing the human GHRH receptor", "experimental": "(§1) Incubation was carried out at equilibrium (23° C., 60 min) and stopped by centrifugation (12,000 g, 5 min, at 4° C.). The radioactivity content in pellets was determined by gamma counting. […] The Ligand computerized program was used to analyze competition curves of GHRH analogues reported in Tables 2 and 3 and to determine their IC₅₀ (Gaudreau P. et al. (1992) J Med Chem, 35: 1864-1869).\n(§2) IC₅₀ is the concentration of peptide inhibiting 50% of ¹²⁵I-GHRH specific binding as determined by the LIGAND program for analysis of competition curves."}, "[2]": {"biological_target": "T1, human GHRH receptor", "assay": "competition with [125I-Tyr10]hGHRH(1-44)NH2, BHK cell membrane preparations expressing the human GHRH receptor", "experimental": "as §1, §2", "remark": "listed apart in the source"}, "[3]": {"biological_target": "T2, rat GHRH receptor (rat, UniProt Q02644 23-464)", "T2 construct": "whole, on cells; Native tissue membrane preparation; In the in vivo study it is the receptor on rat pituitary somatotrophs; also called rat pituitary GHRH receptor", "T2 sequence (looked up)": "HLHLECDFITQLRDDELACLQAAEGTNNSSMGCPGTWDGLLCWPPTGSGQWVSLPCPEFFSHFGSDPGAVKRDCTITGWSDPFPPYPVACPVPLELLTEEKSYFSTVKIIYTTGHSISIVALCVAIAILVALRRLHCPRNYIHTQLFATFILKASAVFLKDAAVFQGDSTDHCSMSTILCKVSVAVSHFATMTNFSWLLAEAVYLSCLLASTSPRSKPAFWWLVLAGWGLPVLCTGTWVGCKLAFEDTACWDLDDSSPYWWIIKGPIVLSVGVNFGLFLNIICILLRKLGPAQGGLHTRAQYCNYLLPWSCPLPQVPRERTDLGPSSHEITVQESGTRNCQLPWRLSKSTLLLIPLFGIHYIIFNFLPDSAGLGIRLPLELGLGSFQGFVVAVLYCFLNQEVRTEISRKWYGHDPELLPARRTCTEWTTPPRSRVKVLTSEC", "assay": "competition with [125I-Tyr10]hGHRH(1-44)-NH2, rat anterior pituitary membrane preparations"}, "[4]": {"biological_target": "T1, human GHRH receptor", "assay": "competition with [125I-Tyr10]hGHRH(1-44)NH2, BHK cell membrane preparations expressing the human GHRH receptor (reference peptide; its IC50 is not given)", "experimental": "as §1, §2"}},
  "note": "Like-named read-outs stand apart in the source and are kept apart here. Square brackets hold non-standard residues; d marks the D form. Ends that are not written are not given here.",
  "data": [
    {"binder": "Y[dA]DAIFTNS[dY]RKVL[dA]QLSARKKLQDIMSR-NH2 (also: acetate salt, also called GHRH analogue #5; human GHRH analogue #5)", "note": "[[D-Ala2, D-Tyr10, D-Ala15, Lys22] hGHRH(1-29)-NH2]", "values": [
      {"measurement": "IC50", "setting": "[1]", "result": 1.2, "unit": "pM"},
      {"measurement": "IC50", "setting": "[2]", "result": 6, "unit": "pM"},
      {"measurement": "relative binding affinity (R1) in comparison with hGHRH(1-29)NH2", "setting": "[2]", "result": "939 ratio IC50 of hGHRH(1-29)-NH2 / IC50 analogue"},
      {"measurement": "relative binding affinity in rat anterior pituitary (compared to hGHRH(1-29)-NH2)", "setting": "[3]", "result": "1.04 fold against hGHRH(1-29)-NH2"}
    ]},
    {"binder": "YADAIFTNSYRKVLGQLSARKLLQDIMSR-NH2 (also called hGHRH(1-29)NH2; hGHRH(1-29)-NH2)", "note": "[human GHRH(1-29)NH2]", "values": [
      {"measurement": "binding result", "setting": "[4]", "result": "binds"}
    ]},
    {"binder": "Y[dA]DAIFTAS[dY]RKVLAQLSAR[dK]KLQDIMSR-NH2 (N-terminus assumed; SMILES CC[C@H](C)[C@H](NC(=O)[C@H](C)NC(=O)[C@H](CC(=O)O)NC(=O)[C@@H](C)NC(=O)[C@@H](N)Cc1ccc(O)cc1)C(=O)N[C@@H](Cc1ccccc1)C(=O)N[C@H](C(=O)N[C@@H](C)C(=O)N[C@@H](CO)C(=O)N[C@H](Cc1ccc(O)cc1)C(=O)N[C@@H](CCCNC(=N)N)C(=O)N[C@@H](CCCCN)C(=O)N[C@H](C(=O)N[C@@H](CC(C)C)C(=O)N[C@@H](C)C(=O)N[C@@H](CCC(N)=O)C(=O)N[C@@H](CC(C)C)C(=O)N[C@@H](CO)C(=O)N[C@@H](C)C(=O)N[C@@H](CCCNC(=N)N)C(=O)N[C@H](CCCCN)C(=O)N[C@@H](CCCCN)C(=O)N[C@@H](CC(C)C)C(=O)N[C@@H](CCC(N)=O)C(=O)N[C@@H](CC(=O)O)C(=O)N[C@H](C(=O)N[C@@H](CCSC)C(=O)N[C@@H](CO)C(=O)N[C@@H](CCCNC(=N)N)C(N)=O)[C@@H](C)CC)C(C)C)[C@@H](C)O, Synthetic 29-residue amide; also called GHRH analogue #4; No. 4)", "note": "[[D-Ala2, Ala8, D-Tyr10, Ala15, D-Lys21, Lys22] hGHRH(1-29)-NH2]", "values": [
      {"measurement": "IC50", "setting": "[2]", "result": 37000, "unit": "pM"},
      {"measurement": "relative binding affinity (R1) in comparison with hGHRH(1-29)NH2", "setting": "[2]", "result": "0.05 ratio IC50 of hGHRH(1-29)-NH2 / IC50 analogue"},
      {"measurement": "relative binding affinity in rat anterior pituitary (compared to hGHRH(1-29)-NH2)", "setting": "[3]", "result": "5 fold against hGHRH(1-29)-NH2"}
    ]},
    {"binder": "Y[dA]DAIFTASYRKVLAQLSARKKLQDIMSR-NH2 (N-terminus assumed; SMILES CC[C@H](C)[C@H](NC(=O)[C@H](C)NC(=O)[C@H](CC(=O)O)NC(=O)[C@@H](C)NC(=O)[C@@H](N)Cc1ccc(O)cc1)C(=O)N[C@@H](Cc1ccccc1)C(=O)N[C@H](C(=O)N[C@@H](C)C(=O)N[C@@H](CO)C(=O)N[C@@H](Cc1ccc(O)cc1)C(=O)N[C@@H](CCCNC(=N)N)C(=O)N[C@@H](CCCCN)C(=O)N[C@H](C(=O)N[C@@H](CC(C)C)C(=O)N[C@@H](C)C(=O)N[C@@H](CCC(N)=O)C(=O)N[C@@H](CC(C)C)C(=O)N[C@@H](CO)C(=O)N[C@@H](C)C(=O)N[C@@H](CCCNC(=N)N)C(=O)N[C@@H](CCCCN)C(=O)N[C@@H](CCCCN)C(=O)N[C@@H](CC(C)C)C(=O)N[C@@H](CCC(N)=O)C(=O)N[C@@H](CC(=O)O)C(=O)N[C@H](C(=O)N[C@@H](CCSC)C(=O)N[C@@H](CO)C(=O)N[C@@H](CCCNC(=N)N)C(N)=O)[C@@H](C)CC)C(C)C)[C@@H](C)O, Synthetic 29-residue amide; also called GHRH analogue #1; No. 1)", "note": "[[D-Ala2, Ala8, Ala15, Lys22] hGHRH(1-29)-NH2]", "values": [
      {"measurement": "IC50", "setting": "[2]", "result": 33, "unit": "pM"},
      {"measurement": "relative binding affinity (R1) in comparison with hGHRH(1-29)NH2", "setting": "[2]", "result": "499 ratio IC50 of hGHRH(1-29)-NH2 / IC50 analogue"},
      {"measurement": "relative binding affinity in rat anterior pituitary (compared to hGHRH(1-29)-NH2)", "setting": "[3]", "result": "13.3 fold against hGHRH(1-29)-NH2"}
    ]},
    {"binder": "Y[dA]DAIFTNS[dY]RKVLGQLSARKKLQDIMSR-NH2 (N-terminus assumed; SMILES CC[C@H](C)[C@H](NC(=O)[C@H](C)NC(=O)[C@H](CC(=O)O)NC(=O)[C@@H](C)NC(=O)[C@@H](N)Cc1ccc(O)cc1)C(=O)N[C@@H](Cc1ccccc1)C(=O)N[C@H](C(=O)N[C@@H](CC(N)=O)C(=O)N[C@@H](CO)C(=O)N[C@H](Cc1ccc(O)cc1)C(=O)N[C@@H](CCCNC(=N)N)C(=O)N[C@@H](CCCCN)C(=O)N[C@H](C(=O)N[C@@H](CC(C)C)C(=O)NCC(=O)N[C@@H](CCC(N)=O)C(=O)N[C@@H](CC(C)C)C(=O)N[C@@H](CO)C(=O)N[C@@H](C)C(=O)N[C@@H](CCCNC(=N)N)C(=O)N[C@@H](CCCCN)C(=O)N[C@@H](CCCCN)C(=O)N[C@@H](CC(C)C)C(=O)N[C@@H](CCC(N)=O)C(=O)N[C@@H](CC(=O)O)C(=O)N[C@H](C(=O)N[C@@H](CCSC)C(=O)N[C@@H](CO)C(=O)N[C@@H](CCCNC(=N)N)C(N)=O)[C@@H](C)CC)C(C)C)[C@@H](C)O, Synthetic 29-residue amide; also called GHRH analogue #3; No. 3)", "note": "[[D-Ala2, D-Tyr10, Lys22] hGHRH(1-29)-NH2]", "values": [
      {"measurement": "IC50", "setting": "[2]", "result": 6.3, "unit": "pM"},
      {"measurement": "relative binding affinity (R1) in comparison with hGHRH(1-29)NH2", "setting": "[2]", "result": "239 ratio IC50 of hGHRH(1-29)-NH2 / IC50 analogue"},
      {"measurement": "relative binding affinity in rat anterior pituitary (compared to hGHRH(1-29)-NH2)", "setting": "[3]", "result": "4.9 fold against hGHRH(1-29)-NH2"}
    ]},
    {"binder": "YADAIFTAAYRKVLAQLSARKALQDIMSR-NH2 (Synthetic 29-residue amide; also called GHRH analogue #2; No. 2)", "note": "[[Ala8, Ala9, Ala15, Ala22] hGHRH(1-29)-NH2]", "values": [
      {"measurement": "IC50", "setting": "[2]", "result": 770, "unit": "pM"},
      {"measurement": "relative binding affinity (R1) in comparison with hGHRH(1-29)NH2", "setting": "[2]", "result": "3.7 ratio IC50 of hGHRH(1-29)-NH2 / IC50 analogue"},
      {"measurement": "relative binding affinity in rat anterior pituitary (compared to hGHRH(1-29)-NH2)", "setting": "[3]", "result": "7.74 fold against hGHRH(1-29)-NH2"}
    ]}
  ]
}
